Data published in patent US20210101937A1 (Bicycle, published 2021).
*1 amine or outer side, *2 acyl side, *3 side chain or, on linkers, in order; H or OH if unused. Bridges are numbered along the chain shown (N, C = ends). Roman numbers before positions name the chains, in order. Where no end group is shown, it is not given here. [ ]: non-standard residue; d: D form. The star is where a group is joined. TATA = O=C(CC[*:1])N1CN(C(=O)CC[*:2])CN(C(=O)CC[*:3])C1; 1Nal = N[C@@H](Cc1cccc2ccccc12)C(=O)O; Hyp = O=C(O)[C@@H]1C[C@@H](O)CN1; hArg = N=C(N)NCCCC[C@H](N)C(=O)O; tBuAla = CC(C)(C)C[C@H](N)C(=O)O; Cysteamide = C(CS[*:3])N[*:1]; NMeA = CN[C@@H](C)C(=O)O; Nle = CCCC[C@H](N)C(=O)O; Pent4ynoyl = C#CCCC(=O)*; dNMeA = CN[C@H](C)C(=O)O; βAla = NCCC(=O)O; Mpa = O=C(O)CCS

target: T1, CD137 (UniProt Q07011 24-255, limits assumed); assay: cell-based or functional assay
T1 sequence (Q07011 24-255 limits assumed): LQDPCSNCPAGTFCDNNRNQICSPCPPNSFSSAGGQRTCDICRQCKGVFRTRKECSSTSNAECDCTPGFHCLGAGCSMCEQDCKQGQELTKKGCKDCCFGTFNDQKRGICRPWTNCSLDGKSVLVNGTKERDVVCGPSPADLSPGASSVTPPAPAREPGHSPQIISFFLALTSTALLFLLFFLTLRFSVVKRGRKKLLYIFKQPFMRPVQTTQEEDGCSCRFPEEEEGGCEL

| Binder | Fold improvement in EC50 over BCY9173 on same plate [fold] | Fold improvement in Emax over BCY9173 on same plate [fold] |
| --- | --- | --- |
| BCY12233 (linker I:4-I:11-I:18, II:1-II:8-II:15 via TATA; linker II:N-II:5 via Peg5; also: two bicycles joined by Peg5 linker) peptide 1: Pent4ynoyl-A[hArg]DC[Hyp]LVNPLCLHP[dD]W[hArg]C peptide 2: Ac-C[tBuAla]PE[dK]PYCFADPY[Nle]CA | 1 | 0.9 |
| BCY12234 (Ac-C[tBuAla]PE[D-Lys]PYCFADPY[Nle]CA; Cys residues bonded to TATA scaffold; [Ac]A[HArg]DC[HyP]LVNPLCLHP[dD]W[HArg]CK(PYA); Cys residues bonded to TATA scaffold) peptide 1: AXDCXLVNPLCLHPDWXCK peptide 2: CXPEKPYCFADPYXCA | 1 | 0.8 |
| BCY12237 (Ac-C[tBuAla]PE[D-Lys]PYCFADPY[Nle]CA; Cys residues bonded to TATA scaffold; [Ac]A[HArg]DC[HyP]LVNPLCK(PYA)HP[dD]W[HArg]C; Cys residues bonded to TATA scaffold) peptide 1: AXDCXLVNPLCKHPDWXC peptide 2: CXPEKPYCFADPYXCA | 1 | 0.8 |
| BCY12236 (Ac-C[tBuAla]PE[D-Lys]PYCFADPY[Nle]CA; Cys residues bonded to TATA scaffold; [Ac]A[HArg]DC[HyP]K(PYA)VNPLCLHP[dD]W[HArg]C; Cys residues bonded to TATA scaffold) peptide 1: AXDCXKVNPLCLHPDWXC peptide 2: CXPEKPYCFADPYXCA | 1.4 | 0.8 |
| BCY12235 (Ac-C[tBuAla]PE[D-Lys]PYCFADPY[Nle]CA; Cys residues bonded to TATA scaffold; [Ac]A[HArg]DC[HyP]LVNPLCLK(PYA)P[dD]W[HArg]C; Cys residues bonded to TATA scaffold) peptide 1: AXDCXLVNPLCLKPDWXC peptide 2: CXPEKPYCFADPYXCA | 1.1 | 0.8 |

target: T1, CD137; assay: cell-based or functional assay; remark: another data set of the same source

| Binder | Fold improvement in EC50 over BCY10000 on same plate [fold] | Fold improvement in Emax over BCY10000 on same plate [fold] |
| --- | --- | --- |
| BCY12578 (Ac-C[tBuAla]PE[D-Lys(PYA)]PYCFADPY[Nle]CA; Cys residues bonded to TATA scaffold; [3-mercaptopropionic acid]P[1Nal][dK]CM[HArg]DWSTP[HyP]W[Cysteamine]; reactive groups bonded to TATA scaffold) peptide 1: XXKCMXDWSTPXX peptide 2: CXPEXPYCFADPYXCA | 0.05 | 0.93 |
| BCY11618 (linker I:2-I:6-I:16, II:1-II:8-II:15 via TATA; linker II:N-II:5 via Peg5; not fully specified (some residues); also: palmitic acid on dK of chain 1) peptide 1: Pent4ynoyl-[βAla]CP[1Nal][dK]CM[hArg]DWSTP[Hyp]WC peptide 2: Ac-C[tBuAla]PE[dK]PYCFADPY[Nle]CA | 0.09 | 2.59 |
| BCY11776 (not fully specified; [Ac]C[tBuAla]PE[dK]PYCFADPY[Nle]C[Dap(PYA)]; dK carries palmitic acid (Example 5); Cys residues bonded to TATA scaffold; CP[1Nal][dD]CM[HArg]DWSTP[HyP]WC; Cys residues bonded to TATA scaffold) peptide 1: CPXDCMXDWSTPXWC peptide 2: CXPEKPYCFADPYXCX | 0.05 | 0.07 |
| BCY12581 (linker I:1-I:5-I:15, II:1-II:8-II:15 via TATA; not fully specified (bridges); also: chain 1 N-terminus joined to chain 2 dLys(PYA) by Peg5 linker (heterotandem complex)) peptide 1: CP[1Nal][dE]CM[hArg]DWSTP[Hyp]WC peptide 2: Ac-C[tBuAla]PE[dK](Pent4ynoyl)PYCFADPY[Nle]CA | 1.35 | 0.88 |
| BCY12710 (linker I:1-I:5-I:15, II:1-II:8-II:15 via TATA; not fully specified (bridges); also: chain 1 N-terminus joined to chain 2 dLys(PYA) by Peg5 linker (heterotandem complex)) peptide 1: CP[1Nal][dD]CM[hArg]DWSTP[Hyp]WC peptide 2: Ac-C[tBuAla]PE[dK](Pent4ynoyl)PYCFAD[dNMeA]Y[Nle]C | 0.16 | 1.41 |
| BCY12709 (linker I:1-I:5-I:15, II:1-II:8-II:15 via TATA; not fully specified (bridges); also: chain 1 N-terminus joined to chain 2 dLys(PYA) by Peg5 linker (heterotandem complex)) peptide 1: CP[1Nal][dD]CM[hArg]DWSTP[Hyp]WC peptide 2: Ac-C[tBuAla]PE[dK](Pent4ynoyl)PYCFAD[NMeA]Y[Nle]C | 0.08 | 2.15 |
| BCY12577 (Ac-C[tBuAla]PE[D-Lys(PYA)]PYCFADPY[Nle]CA; Cys residues bonded to TATA scaffold; [Ac]CP[1Nal][dK]CM[HArg]DWSTP[HyP]W[Cysteamine]; reactive groups bonded to TATA scaffold) peptide 1: CPXKCMXDWSTPXX peptide 2: CXPEXPYCFADPYXCA | 0.25 | 1.06 |
| BCY12583 (linker I:1-I:5-I:15, II:1-II:8-II:15 via TATA; not fully specified (bridges); printed as CP[1Nal][dE]CL[HArg]DWSTP[HyP]WC / Ac-C[tBuAla]PE[D-Lys(PYA)]PYCFADPY[Nle]CA; also: chain 1 N-terminus joined to chain 2 dLys(PYA) by Peg5 linker (heterotandem complex)) peptide 1: CP[1Nal][dE]CL[hArg]DWSTP[Hyp]WC peptide 2: Ac-C[tBuAla]PE[dK](Pent4ynoyl)PYCFADPY[Nle]CA | 0.6 | 1.47 |
| BCY12579 (Ac-C[tBuAla]PE[D-Lys(PYA)]PYCFADPY[Nle]CA; Cys residues bonded to TATA scaffold; [Ac]CP[1Nal][dK]CM[HArg]HWSTP[HyP]WC; Cys residues bonded to TATA scaffold) peptide 1: CPXKCMXHWSTPXWC peptide 2: CXPEXPYCFADPYXCA | 0.29 | 1.07 |
| BCY12379 ([Ac]C[tBuAla]PE[dK(PYA)]PYCFADPY[Nle]C; Cys residues bonded to TATA scaffold; CP[1Nal][dD]CM[HArg]DWSTP[HyP]WC; Cys residues bonded to TATA scaffold) peptide 1: CPXDCMXDWSTPXWC peptide 2: CXPEKPYCFADPYXC | 0.91 | 1.29 |
| BCY12582 (linker I:1-I:5-I:15, II:1-II:8-II:15 via TATA; not fully specified (bridges); also: chain 1 N-terminus joined to chain 2 dLys(PYA) by Peg5 linker (heterotandem complex)) peptide 1: CP[1Nal][dA]CM[hArg]DWSTP[Hyp]WC peptide 2: Ac-C[tBuAla]PE[dK](Pent4ynoyl)PYCFADPY[Nle]CA | 1.69 | 1.32 |
| BCY12020 ([Ac]C[tBuAla]PE[dK]PYCFADPY[Nle]C[Dap(PYA)]; carries Palmitic acid-PEG10 (Example 7); Cys residues bonded to TATA scaffold; [PYA][B-Ala]CP[1Nal][dD]CM[HArg]DWSTP[HyP]WC; Cys residues bonded to TATA scaffold) peptide 1: XCPXDCMXDWSTPXWC peptide 2: CXPEKPYCFADPYXCX | 0.15 | 0.48 |
| BCY12572 ([Ac]C[tBuAla]PE[dK(PYA)]PYCFADPY[Nle][Cysteamine]; reactive groups bonded to TATA scaffold; CP[1Nal][dD]CM[HArg]DWSTP[HyP]WC; Cys residues bonded to TATA scaffold) peptide 1: CPXDCMXDWSTPXWC peptide 2: CXPEKPYCFADPYX | 0.35 | 1.67 |
| BCY11616 (Ac-ACIEE(D-K)(PYA)QYCFADPY(Nle)CA; Cys residues bonded to TATA scaffold; CP[1Nal][dD]CM[HArg]DWSTP[HyP]WC; Cys residues bonded to TATA scaffold) peptide 1: CPXDCMXDWSTPXWC peptide 2: ACIEEKQYCFADPYXCA | 0.21 | 1.22 |
| BCY12377 ([Ac]C[tBuAla]EE[dK(PYA)]PYCFADPY[Nle]C; Cys residues bonded to TATA scaffold; CP[1Nal][dD]CM[HArg]DWSTP[HyP]WC; Cys residues bonded to TATA scaffold) peptide 1: CPXDCMXDWSTPXWC peptide 2: CXEEKPYCFADPYXC | 0.78 | 1.37 |
| BCY12576 (Ac-C[tBuAla]PE[D-Lys(PYA)]PYCFADPY[Nle]CA; Cys residues bonded to TATA scaffold; [3-mercaptopropionic acid]P[1Nal][dK]CM[HArg]DWSTP[HyP]WC; reactive groups bonded to TATA scaffold) peptide 1: XXKCMXDWSTPXWC peptide 2: CXPEXPYCFADPYXCA | 0.23 | 1.45 |
| BCY12573 (linker I:1-I:5-I:15 via TATA; numbers in words are those of the source; also: two bicycles joined by Peg5 linker, linker at chain B 7 at chain B 14 to a chain's N-terminus via TATA) peptide 1: CP[1Nal][dD]CM[hArg]DWSTP[Hyp]WC peptide 2: [Mpa][tBuAla]PE[dK](Pent4ynoyl)PYCFADPY[Nle]C | 0.74 | 1.34 |
| BCY11860 (linker I:2-I:6-I:16, II:1-II:8-II:15 via TATA; linker II:N-II:5 via Peg5; also: two bicycles joined by Peg5 linker, further acylated with a reagent shown only in a drawing) peptide 1: Pent4ynoyl-[βAla]CP[1Nal][dK]CM[hArg]DWSTP[Hyp]WC peptide 2: Ac-C[tBuAla]PE[dK]PYCFADPY[Nle]CA | 0.29 | 1.53 |
| BCY12574 (linker I:1-I:5-I:15 via TATA; numbers in words are those of the source; also: two bicycles joined by Peg5 linker, linker at chain B 7 to a chain's N/C-terminus via TATA) peptide 1: CP[1Nal][dD]CM[hArg]DWSTP[Hyp]WC peptide 2: [Mpa][tBuAla]PE[dK](Pent4ynoyl)PYCFADPY[Nle]-Cysteamide | 0.22 | 0.77 |
| BCY12580 (Ac-C[tBuAla]PE[D-Lys(PYA)]PYCFADPY[Nle]CA; Cys residues bonded to TATA scaffold; [Ac]CP[1Nal][dK]CM[HArg]EWSTP[HyP]WC; Cys residues bonded to TATA scaffold) peptide 1: CPXKCMXEWSTPXWC peptide 2: CXPEXPYCFADPYXCA | 0.64 | 0.97 |
| BCY12661 ([Ac]C[tBuAla]EE(dK)PYCFADPY[Nle]C[Dap(PYA)]; carries the palmitic acid azide of Example 8 (palmitic acid, γGlu, Lys(N3)); Cys residues bonded to TATA scaffold; [PYA]CP[1Nal][dD]CM[HArg]DWSTP[HyP]WC; Cys residues bonded to TATA scaffold) peptide 1: XPXDCMXDWSTPXWC peptide 2: CXEEKPYCFADPYXCX | 0.34 | 0.5 |
| BCY12585 (linker I:1-I:5-I:15, II:1-II:8-II:15 via TATA; not fully specified (bridges); printed as CP[1Nal][dE]CM[HArg]EWSTP[HyP]WC / Ac-C[tBuAla]PE[D-Lys(PYA)]PYCFADPY[Nle]CA; also: chain 1 N-terminus joined to chain 2 dLys(PYA) by Peg5 linker (heterotandem complex)) peptide 1: CP[1Nal][dE]CM[hArg]EWSTP[Hyp]WC peptide 2: Ac-C[tBuAla]PE[dK](Pent4ynoyl)PYCFADPY[Nle]CA | 1.31 | 1.5 |

target: T1, CD137; assay: cell-based or functional assay; remark: another data set of the same source

| Binder | EC50 [nM] | Fold Induction over background [fold over background] |
| --- | --- | --- |
| BCY12229 (Ac-C[tBuAla]PE[D-Lys(PYA)]PYCFADPY[Nle]CA; Cys residues bonded to TATA scaffold; [Ac]D[HArg]CSAGWLTMCQKLHLCPSH; Cys residues bonded to TATA scaffold) peptide 1: DXCSAGWLTMCQKLHLCPSH peptide 2: CXPEXPYCFADPYXCA | 18 | 8 |
